Test results taken from US20230272011A1 (AVACTA LIFE SCIENCES, published 2023).

Legend:
human serum albumin [1] = biological target: T1, human serum albumin (human, UniProt P02768 25-609); assay: SPR (Biacore), immobilised HSA, Affimer analyte
T1 construct: mature; Bought protein; biotinylated in the Octet and HTRF assays; also called HSA; HuSA
Description: Affinities for mouse, human, and cynomolgus serum were also measured at pH 7.4 for four (4) AFFIMER® binders using surface plasmon resonance (SPR) (FIG. 5, Table 5). […] A concentration titration of AFFIMER® monomers was run as analyte at a flow rate of 30 μl/min or 60 μl/min. Fc2-1, Fc3-1 and Fc4-1 kinetic data was blank subtracted and fit to a 1:1 Langmuir binding model (BIAcore Evalution software; GE) to calculate KD values. […]

rabbit serum albumin = rabbit serum albumin (rabbit, UniProt P49065 25-608); assay: binding ELISA, coated albumin, pH 7.4
mouse serum albumin [2] = biological target: T2, mouse serum albumin (mouse, UniProt P07724 25-608); assay: binding ELISA, coated albumin, pH 7.4
T2 construct: also called MSA

porcine serum albumin = porcine serum albumin (porcine, UniProt P08835 25-607); assay: binding ELISA, coated albumin, pH 7.4
rat serum albumin = rat serum albumin (rat, UniProt P02770 25-608); assay: binding ELISA, coated albumin, pH 7.4
canine serum albumin [3] = biological target: T3, canine serum albumin (canine, UniProt P49822 25-608); assay: binding ELISA, coated albumin, pH 7.4
equine serum albumin = equine serum albumin (equine, UniProt P35747 25-607); assay: binding ELISA, coated albumin, pH 7.4
cynomolgus serum albumin [4] = biological target: T4, cynomolgus serum albumin (cynomolgus); assay: binding ELISA, coated albumin, pH 7.4
T4 construct: also called CSA; cyno serum albumin

human serum albumin [5] = biological target: T1, human serum albumin; assay: binding ELISA, coated albumin, pH 7.4
human serum albumin [6] = biological target: T1, human serum albumin; assay: Biacore, immobilised HSA, pH 7.4
Description: Affinities for mouse, human, and cynomolgus serum were also measured at pH 7.4 for four (4) AFFIMER® binders using surface plasmon resonance (SPR) (FIG. 5, Table 5). […] A concentration titration of AFFIMER® monomers was run as analyte at a flow rate of 30 μl/min or 60 μl/min. Fc2-1, Fc3-1 and Fc4-1 kinetic data was blank subtracted and fit to a 1:1 Langmuir binding model (BIAcore Evalution software; GE) to calculate KD values.
The AFFIMER® polypeptides were produced and purified from E. coli as described in Example 3.

cynomolgus serum albumin [7] = biological target: T4, cynomolgus serum albumin; assay: Octet biolayer interferometry, biotinylated albumin on SA sensors, pH 6.0
Outline: (§1)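 Biotinylated albumin was loaded on streptavidin sensors at 1 μg/ml for 600 s in PBS-T (0.01% Tween 20) + 1% casein at pH 6.0 or 7.4, 25° C, 1000 rpm. Kinetics came from a 1:1 global fit with reference-sensor subtraction.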

human serum albumin [8] = biological target: T1, human serum albumin; assay: as above
Outline: as §1

mouse serum albumin [9] = biological target: T2, mouse serum albumin; assay: Octet biolayer interferometry, pH 6.0
Description: (§2) Biotinylated antigen was captured onto SA sensors at 1 μg/ml for 600 seconds in a buffer comprising PBS-T (0.01% Tween 20)+1% casein at either pH 6.0 or 7.4. Association was carried out for 300 seconds and dissociation for 600 seconds, and regeneration was performed using 10 mM glycine pH 1.5 (GE Healthcare) for 3×5 seconds. All steps were carried out at 1000 rpm and 25° C. Purified AFFIMER® polypeptide in two-fold serial dilutions was analyzed at a starting concentration of approximately 10× K_{D value}. Kinetics analyses were carried out using the Octet data analysis software, subtracting the reference sensor (loaded with antigen), aligning the Y-axis to baseline, and using inter-step correction to align association to dissociation. Savitzky-Golay filtering was applied and the data processed. Analysis of the data was carried out with a 1:1 model, global fit, Rₘₐₓ unlinked by sensor.
(§3) AFFIMER® polypeptides were incubated with AcTEV for 1 hour at 30° C. as recommend by the manufacturer (Invitrogen) and removal of cleaved His tag by binding NiNTA resin (Generon) and collecting the cleaved protein flow through. […] Pharmacokinetic profile of IV-injected His tag cleaved AFFIMER® protein compared to C-terminally His-tagged AFFIMER® protein was evaluated.

cynomolgus serum albumin [10] = biological target: T4, cynomolgus serum albumin; assay: Octet biolayer interferometry, pH 6.0
Description: as §2, §3

human serum albumin [11] = biological target: T1, human serum albumin; assay: Octet biolayer interferometry, pH 6.0
Description: as §2, §3

human serum albumin [12] = biological target: T1, human serum albumin; assay: SPR (Biacore), immobilised HSA, Affimer analyte; remark: listed apart in the source
mouse serum albumin [13] = biological target: T2, mouse serum albumin; assay: BLI (Octet), biotinylated albumin on SA sensor, pH 7.4
Outline: as §1

cynomolgus serum albumin [14] = biological target: T4, cynomolgus serum albumin; assay: as above
Outline: as §1

human serum albumin [15] = biological target: T1, human serum albumin; assay: as above
Outline: as §1

canine serum albumin [16] = biological target: T3, canine serum albumin; assay: binding ELISA on coated albumin, pH 6.0, panel 'Canine SA Binding at pH 6.0'

T2 sequence (P07724 25-608 limits assumed): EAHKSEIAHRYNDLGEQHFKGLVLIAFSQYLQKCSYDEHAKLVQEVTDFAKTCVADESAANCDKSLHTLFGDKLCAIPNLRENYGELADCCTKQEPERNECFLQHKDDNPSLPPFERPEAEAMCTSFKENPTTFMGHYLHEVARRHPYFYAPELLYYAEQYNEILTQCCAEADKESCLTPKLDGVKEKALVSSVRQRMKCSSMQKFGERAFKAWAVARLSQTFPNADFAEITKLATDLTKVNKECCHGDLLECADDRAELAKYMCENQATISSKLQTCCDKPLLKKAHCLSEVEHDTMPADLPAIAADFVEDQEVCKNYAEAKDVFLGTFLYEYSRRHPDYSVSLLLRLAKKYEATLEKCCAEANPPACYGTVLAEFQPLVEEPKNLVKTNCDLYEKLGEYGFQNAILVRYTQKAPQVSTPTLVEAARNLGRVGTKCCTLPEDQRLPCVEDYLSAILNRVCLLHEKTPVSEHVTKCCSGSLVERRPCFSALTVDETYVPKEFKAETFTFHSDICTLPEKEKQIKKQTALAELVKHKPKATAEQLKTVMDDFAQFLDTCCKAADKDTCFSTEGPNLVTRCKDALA
T4 sequence (A2V9Z4 25-608): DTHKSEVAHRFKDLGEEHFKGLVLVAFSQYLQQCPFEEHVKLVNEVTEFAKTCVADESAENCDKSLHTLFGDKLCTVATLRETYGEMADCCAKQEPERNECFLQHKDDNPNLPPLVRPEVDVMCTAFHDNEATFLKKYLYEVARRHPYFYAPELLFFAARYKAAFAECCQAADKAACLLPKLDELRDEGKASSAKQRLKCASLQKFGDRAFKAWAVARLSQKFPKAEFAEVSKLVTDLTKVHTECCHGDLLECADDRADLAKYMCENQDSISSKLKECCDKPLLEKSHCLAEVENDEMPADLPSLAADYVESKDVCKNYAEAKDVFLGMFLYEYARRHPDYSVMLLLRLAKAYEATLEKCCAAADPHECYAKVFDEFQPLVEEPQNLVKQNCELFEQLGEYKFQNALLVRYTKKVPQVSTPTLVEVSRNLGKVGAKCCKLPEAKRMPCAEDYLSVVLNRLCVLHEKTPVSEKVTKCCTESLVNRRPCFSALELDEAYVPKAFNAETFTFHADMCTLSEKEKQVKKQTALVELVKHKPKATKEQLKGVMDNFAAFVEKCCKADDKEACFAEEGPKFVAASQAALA
T3 sequence (P49822 25-608 limits assumed): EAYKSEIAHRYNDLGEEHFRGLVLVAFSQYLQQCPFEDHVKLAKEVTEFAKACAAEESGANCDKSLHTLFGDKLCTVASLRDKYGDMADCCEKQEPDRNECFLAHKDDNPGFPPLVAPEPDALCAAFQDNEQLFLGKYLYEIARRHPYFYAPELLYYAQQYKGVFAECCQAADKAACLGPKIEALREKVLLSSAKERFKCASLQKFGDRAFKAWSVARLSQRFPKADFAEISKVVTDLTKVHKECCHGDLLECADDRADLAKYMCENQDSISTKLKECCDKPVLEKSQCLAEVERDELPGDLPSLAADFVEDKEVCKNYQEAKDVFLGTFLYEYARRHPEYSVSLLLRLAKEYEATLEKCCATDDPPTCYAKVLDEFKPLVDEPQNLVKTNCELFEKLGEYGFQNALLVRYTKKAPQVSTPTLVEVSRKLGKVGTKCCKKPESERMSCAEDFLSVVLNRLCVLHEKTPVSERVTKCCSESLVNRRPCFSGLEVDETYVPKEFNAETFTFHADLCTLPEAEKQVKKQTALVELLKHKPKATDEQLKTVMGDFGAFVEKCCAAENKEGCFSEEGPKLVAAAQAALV
Sequence of porcine serum albumin (P08835 25-607 limits assumed): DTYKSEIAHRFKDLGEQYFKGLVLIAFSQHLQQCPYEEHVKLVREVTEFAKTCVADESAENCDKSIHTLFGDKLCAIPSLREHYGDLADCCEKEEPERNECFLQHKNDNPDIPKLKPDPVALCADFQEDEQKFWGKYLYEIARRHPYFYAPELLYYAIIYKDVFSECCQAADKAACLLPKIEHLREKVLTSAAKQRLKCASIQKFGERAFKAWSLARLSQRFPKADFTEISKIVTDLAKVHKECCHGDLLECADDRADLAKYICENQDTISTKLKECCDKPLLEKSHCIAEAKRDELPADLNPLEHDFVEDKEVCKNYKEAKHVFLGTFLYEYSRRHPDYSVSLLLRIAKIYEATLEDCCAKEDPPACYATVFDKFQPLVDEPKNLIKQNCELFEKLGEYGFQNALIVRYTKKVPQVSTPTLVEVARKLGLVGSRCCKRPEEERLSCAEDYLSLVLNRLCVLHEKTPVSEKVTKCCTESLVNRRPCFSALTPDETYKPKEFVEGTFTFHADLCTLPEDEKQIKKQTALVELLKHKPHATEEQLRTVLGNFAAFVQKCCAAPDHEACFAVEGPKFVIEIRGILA
Sequence of rat serum albumin (P02770 25-608 limits assumed): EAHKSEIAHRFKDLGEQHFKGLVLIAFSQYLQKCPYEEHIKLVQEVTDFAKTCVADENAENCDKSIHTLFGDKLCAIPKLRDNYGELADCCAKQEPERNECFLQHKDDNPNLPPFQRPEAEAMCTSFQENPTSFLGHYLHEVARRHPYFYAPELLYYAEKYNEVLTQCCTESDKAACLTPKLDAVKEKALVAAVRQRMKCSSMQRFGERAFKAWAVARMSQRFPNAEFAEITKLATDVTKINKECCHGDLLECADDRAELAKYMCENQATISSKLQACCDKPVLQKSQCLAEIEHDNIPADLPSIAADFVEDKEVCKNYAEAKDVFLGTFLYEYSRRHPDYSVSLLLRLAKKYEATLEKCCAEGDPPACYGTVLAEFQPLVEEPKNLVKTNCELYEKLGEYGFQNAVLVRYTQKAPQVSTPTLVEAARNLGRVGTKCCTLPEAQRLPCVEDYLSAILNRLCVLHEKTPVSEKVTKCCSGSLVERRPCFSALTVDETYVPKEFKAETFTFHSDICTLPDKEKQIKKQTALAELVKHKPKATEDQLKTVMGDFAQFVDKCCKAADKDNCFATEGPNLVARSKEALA
Sequence of equine serum albumin (P35747 25-607 limits assumed): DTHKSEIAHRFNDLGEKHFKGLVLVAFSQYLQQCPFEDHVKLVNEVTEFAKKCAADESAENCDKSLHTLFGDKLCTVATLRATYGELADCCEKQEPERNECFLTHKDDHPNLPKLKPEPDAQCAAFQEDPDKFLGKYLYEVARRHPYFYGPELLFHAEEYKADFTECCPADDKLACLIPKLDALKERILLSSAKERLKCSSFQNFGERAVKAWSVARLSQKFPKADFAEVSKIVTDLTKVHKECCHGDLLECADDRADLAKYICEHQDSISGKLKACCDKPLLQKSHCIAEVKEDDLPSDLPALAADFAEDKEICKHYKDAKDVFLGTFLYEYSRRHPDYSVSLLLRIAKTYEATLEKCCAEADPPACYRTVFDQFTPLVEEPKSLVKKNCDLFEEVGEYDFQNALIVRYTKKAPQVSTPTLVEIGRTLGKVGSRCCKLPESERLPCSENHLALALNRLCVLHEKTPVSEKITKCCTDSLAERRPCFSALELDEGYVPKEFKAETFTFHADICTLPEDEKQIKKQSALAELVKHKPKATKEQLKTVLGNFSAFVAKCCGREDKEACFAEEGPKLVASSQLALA
Sequence of rabbit serum albumin (P49065 25-608 limits assumed): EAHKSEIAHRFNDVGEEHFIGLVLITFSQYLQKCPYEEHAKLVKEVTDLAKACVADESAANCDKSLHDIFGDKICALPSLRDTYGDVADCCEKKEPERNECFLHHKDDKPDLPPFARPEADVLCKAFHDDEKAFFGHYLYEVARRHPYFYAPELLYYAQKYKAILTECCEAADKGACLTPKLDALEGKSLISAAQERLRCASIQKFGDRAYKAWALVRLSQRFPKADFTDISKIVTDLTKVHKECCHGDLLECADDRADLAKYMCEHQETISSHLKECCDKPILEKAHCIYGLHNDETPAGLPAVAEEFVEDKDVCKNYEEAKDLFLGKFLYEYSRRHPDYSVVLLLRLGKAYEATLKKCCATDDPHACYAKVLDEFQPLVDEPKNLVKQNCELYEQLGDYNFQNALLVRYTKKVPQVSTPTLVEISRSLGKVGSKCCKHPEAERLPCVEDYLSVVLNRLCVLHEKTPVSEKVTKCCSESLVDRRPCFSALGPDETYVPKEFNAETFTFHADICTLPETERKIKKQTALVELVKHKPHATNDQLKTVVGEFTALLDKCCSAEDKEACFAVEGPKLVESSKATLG

B1: HSA-41 (designed binder)
chain: MIPRGLSEAKPATPEIQEIVDKVKPQLEEKTNETYGKLEAVQYKTQVLANFFQRRWPGSTNYYIKVRAGDNKYMHLKVFNGPWKFRNTDRGADRVLTGYQVDKNKDDELTGFHHHHHH
notes: also called HSA-41 parent; HSA-41 AH parent
Which results are given for B1?
Kd (human serum albumin [1]): 5.13 nM; koff (human serum albumin [1]): 0.00435 s⁻¹; kon (human serum albumin [1]): 848000 M⁻¹ s⁻¹; EC50 (rabbit serum albumin): 381 nM; EC50 (mouse serum albumin [2]): 42.5 nM; EC50 (porcine serum albumin): 51.7 nM; EC50 (rat serum albumin): 4.18 nM; EC50 (canine serum albumin [3]): 21.5 nM; EC50 (equine serum albumin): 150 nM; EC50 (cynomolgus serum albumin [4]): 12.8 nM; EC50 (human serum albumin [5]): 0.05 nM; Kd (human serum albumin [6]): 2.84 nM; koff (human serum albumin [6]): 0.00347 s⁻¹; kon (human serum albumin [6]): 1.22e+06 M⁻¹ s⁻¹; koff (cynomolgus serum albumin [7]): 0.00717 s⁻¹; kon (cynomolgus serum albumin [7]): 68100 M⁻¹ s⁻¹; koff (human serum albumin [8]): 0.00198 s⁻¹; kon (human serum albumin [8]): 278000 M⁻¹ s⁻¹; Kd (mouse serum albumin [9]): 50.5 nM; Kd (cynomolgus serum albumin [10]): 220 nM; Kd (human serum albumin [11]): 11.9 nM; Kd (human serum albumin [12]): 2.4 nM; koff (human serum albumin [12]): 0.00354 s⁻¹; kon (human serum albumin [12]): 1.48e+06 M⁻¹ s⁻¹; Kd (mouse serum albumin [13]): 47.9 nM; Kd (cynomolgus serum albumin [14]): 71.5 nM; Kd (human serum albumin [15]): 5.2 nM; EC50 (read off the curve) (canine serum albumin [16]): ~2 nM
